The target in one assay is His-DDB1 (recombinant) (human, UniProt Q16531 1-1140). The assay can be described thus: fluorescence polarisation. (In general: Fluorescence polarisation rises when a labelled molecule tumbles more slowly, as on binding a larger partner.)
Assay [1] addresses CRL4A complex (CUL4A, DDB1, RBX1) (human | , UniProt Q13619 1-759; Q16531 1-1140; P62877 1-108). The assay is described as follows: fluorescence polarisation.

Data on two molecules can be found in publication doi:10.1101/2022.10.14.512051 (bioRxiv, 2022).

Sequence of CRL4A complex (CUL4A, DDB1, RBX1) (Q13619 whole entry, chain 1 of 3): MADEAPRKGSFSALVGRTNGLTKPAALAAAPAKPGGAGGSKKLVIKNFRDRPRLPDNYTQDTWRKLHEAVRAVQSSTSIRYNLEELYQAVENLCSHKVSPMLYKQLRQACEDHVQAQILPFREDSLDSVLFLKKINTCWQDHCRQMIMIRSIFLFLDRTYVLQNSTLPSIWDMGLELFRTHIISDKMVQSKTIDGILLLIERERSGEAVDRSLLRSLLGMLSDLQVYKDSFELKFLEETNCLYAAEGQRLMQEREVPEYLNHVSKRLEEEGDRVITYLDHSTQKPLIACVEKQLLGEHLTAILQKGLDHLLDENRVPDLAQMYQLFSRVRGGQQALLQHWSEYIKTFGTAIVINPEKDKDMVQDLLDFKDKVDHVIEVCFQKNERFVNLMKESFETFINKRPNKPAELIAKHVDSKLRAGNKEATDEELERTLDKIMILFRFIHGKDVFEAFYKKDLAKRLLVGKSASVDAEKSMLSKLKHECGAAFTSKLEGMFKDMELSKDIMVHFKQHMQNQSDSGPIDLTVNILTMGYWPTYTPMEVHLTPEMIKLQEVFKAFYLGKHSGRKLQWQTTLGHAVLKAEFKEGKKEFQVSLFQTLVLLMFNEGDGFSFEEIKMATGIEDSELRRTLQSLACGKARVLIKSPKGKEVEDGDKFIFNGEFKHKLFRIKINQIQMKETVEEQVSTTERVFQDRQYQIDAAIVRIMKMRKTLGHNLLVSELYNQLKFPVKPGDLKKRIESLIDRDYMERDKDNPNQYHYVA
Sequence of CRL4A complex (CUL4A, DDB1, RBX1) (Q16531 whole entry, chain 2 of 3): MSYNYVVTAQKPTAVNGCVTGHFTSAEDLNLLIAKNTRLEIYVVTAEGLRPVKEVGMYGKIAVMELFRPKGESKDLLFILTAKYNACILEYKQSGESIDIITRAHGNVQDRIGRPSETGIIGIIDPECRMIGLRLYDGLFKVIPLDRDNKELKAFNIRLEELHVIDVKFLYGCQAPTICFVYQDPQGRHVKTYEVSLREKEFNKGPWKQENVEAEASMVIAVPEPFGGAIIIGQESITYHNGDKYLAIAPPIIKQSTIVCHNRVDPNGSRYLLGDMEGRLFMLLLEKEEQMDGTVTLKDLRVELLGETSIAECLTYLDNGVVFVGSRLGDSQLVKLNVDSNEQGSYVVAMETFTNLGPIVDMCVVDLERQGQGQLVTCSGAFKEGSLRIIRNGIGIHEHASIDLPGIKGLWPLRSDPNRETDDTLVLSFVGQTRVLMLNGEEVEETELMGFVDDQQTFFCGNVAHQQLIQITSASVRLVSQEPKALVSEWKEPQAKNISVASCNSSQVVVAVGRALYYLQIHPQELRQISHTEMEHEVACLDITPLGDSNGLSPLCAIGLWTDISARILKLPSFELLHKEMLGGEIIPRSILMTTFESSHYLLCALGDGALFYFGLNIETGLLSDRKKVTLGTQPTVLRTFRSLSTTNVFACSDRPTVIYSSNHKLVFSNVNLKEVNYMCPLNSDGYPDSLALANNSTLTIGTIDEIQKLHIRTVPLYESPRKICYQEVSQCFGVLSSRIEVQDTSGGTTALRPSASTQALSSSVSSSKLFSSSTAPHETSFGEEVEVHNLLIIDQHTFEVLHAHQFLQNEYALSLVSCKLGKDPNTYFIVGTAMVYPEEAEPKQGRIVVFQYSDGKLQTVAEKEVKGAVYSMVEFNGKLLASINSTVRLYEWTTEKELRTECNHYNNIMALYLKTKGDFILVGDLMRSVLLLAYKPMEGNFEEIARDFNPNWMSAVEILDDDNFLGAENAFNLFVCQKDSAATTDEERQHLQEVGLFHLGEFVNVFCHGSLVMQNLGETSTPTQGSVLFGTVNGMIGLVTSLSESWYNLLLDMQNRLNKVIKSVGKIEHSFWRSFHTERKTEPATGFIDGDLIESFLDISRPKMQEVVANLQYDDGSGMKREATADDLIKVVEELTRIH
Sequence of CRL4A complex (CUL4A, DDB1, RBX1) (P62877 whole entry, chain 3 of 3): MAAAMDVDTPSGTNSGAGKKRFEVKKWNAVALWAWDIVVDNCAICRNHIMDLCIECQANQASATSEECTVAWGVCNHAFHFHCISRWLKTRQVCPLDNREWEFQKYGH
Sequence of His-DDB1 (recombinant) (Q16531 whole entry): as the sequence (Q16531 whole entry, chain 2 of 3) above

B1: Alexa-labeled WDR1 (biotinylated StrepII-Avi-WDR1 with Alexa488-coupled streptavidin) (natural protein, human, UniProt O75083 1-606, looked up)
chain: MPYEIKKVFASLPQVERGVSKIIGGDPKGNNFLYTNGKCVILRNIDNPALADIYTEHAHQVVVAKYAPSGFYIASGDVSGKLRIWDTTQKEHLLKYEYQPFAGKIKDIAWTEDSKRIAVVGEGREKFGAVFLWDSGSSVGEITGHNKVINSVDIKQSRPYRLATGSDDNCAAFFEGPPFKFKFTIGDHSRFVNCVRFSPDGNRFATASADGQIYIYDGKTGEKVCALGGSKAHDGGIYAISWSPDSTHLLSASGDKTSKIWDVSVNSVVSTFPMGSTVLDQQLGCLWQKDHLLSVSLSGYINYLDRNNPSKPLHVIKGHSKSIQCLTVHKNGGKSYIYSGSHDGHINYWDSETGENDSFAGKGHTNQVSRMTVDESGQLISCSMDDTVRYTSLMLRDYSGQGVVKLDVQPKCVAVGPGGYAVVVCIGQIVLLKDQRKCFSIDNPGYEPEVVAVHPGGDTVAIGGVDGNVRLYSILGTTLKDEGKLLEAKGPVTDVAYSHDGAFLAVCDASKVVTVFSVADGYSENNVFYGHHAKIVCLAWSPDNEHFASGGMDMMVYVWTLSDPETRVKIQDAHRLHHVSSLAWLDEHTLVTTSHDASVKEWTITY
modifications: biotin on the Avi tag
For B1, the values for the Kd (in the assay with His-DDB1 (recombinant); in assay [1]) were roughly 5 µM and roughly 13 µM, respectively.

B2: Alexa-labeled LIS1 (biotinylated StrepII-Avi-LIS1 with Alexa488-coupled streptavidin) (natural protein, human, UniProt P43034 1-410, looked up)
chain: MVLSQRQRDELNRAIADYLRSNGYEEAYSVFKKEAELDVNEELDKKYAGLLEKKWTSVIRLQKKVMELESKLNEAKEEFTSGGPLGQKRDPKEWIPRPPEKYALSGHRSPVTRVIFHPVFSVMVSASEDATIKVWDYETGDFERTLKGHTDSVQDISFDHSGKLLASCSADMTIKLWDFQGFECIRTMHGHDHNVSSVAIMPNGDHIVSASRDKTIKMWEVQTGYCVKTFTGHREWVRMVRPNQDGTLIASCSNDQTVRVWVVATKECKAELREHEHVVECISWAPESSYSSISEATGSETKKSGKPGPFLLSGSRDKTIKMWDVSTGMCLMTLVGHDNWVRGVLFHSGGKFILSCADDKTLRVWDYKNKRCMKTLNAHEHFVTSLDFHKTAPYVVTGSVDQTVKVWECR
modifications: biotin on the Avi tag
Consider B2, for which the dissociation constant (Kd) – broadly, the constant that tells how readily two partners part at equilibrium – with His-DDB1 (recombinant) is roughly 5 µM; in assay [1] it was roughly 13 µM.
